The values that follow come from IntAct's records for PubMed 21362419.

First the molecules themselves.
B1: Tyrosine-protein kinase JAK2 (Mus musculus), Q62120 (parent)
chain: MGMACLTMTEMEATSTSPVHQNGDIPGSANSVKQIEPVLQVYLYHSLGQAEGEYLKFPSGEYVAEEICVAASKACGITPVYHNMFALMSETERIWYPPNHVFHIDESTRHDILYRIRFYFPHWYCSGSSRTYRYGVSRGAEAPLLDDFVMSYLFAQWRHDFVHGWIKVPVTHETQEECLGMAVLDMMRIAKEKDQTPLAVYNSVSYKTFLPKCVRAKIQDYHILTRKRIRYRFRRFIQQFSQCKATARNLKLKYLINLETLQSAFYTEQFEVKESARGPSGEEIFATIIITGNGGIQWSRGKHKESETLTEQDVQLYCDFPDIIDVSIKQANQECSNESRIVTVHKQDGKVLEIELSSLKEALSFVSLIDGYYRLTADAHHYLCKEVAPPAVLENIHSNCHGPISMDFAISKLKKAGNQTGLYVLRCSPKDFNKYFLTFAVERENVIEYKHCLITKNENGEYNLSGTKRNFSNLKDLLNCYQMETVRSDSIIFQFTKCCPPKPKDKSNLLVFRTNGISDVQISPTLQRHNNVNQMVFHKIRNEDLIFNESLGQGTFTKIFKGVRREVGDYGQLHKTEVLLKVLDKAHRNYSESFFEAASMMSQLSHKHLVLNYGVCVCGEENILVQEFVKFGSLDTYLKKNKNSINILWKLGVAKQLAWAMHFLEEKSLIHGNVCAKNILLIREEDRRTGNPPFIKLSDPGISITVLPKDILQERIPWVPPECIENPKNLNLATDKWSFGTTLWEICSGGDKPLSALDSQRKLQFYEDKHQLPAPKWTELANLINNCMDYEPDFRPAFRAVIRDLNSLFTPDYELLTENDMLPNMRIGALGFSGAFEDRDPTQFEERHLKFLQQLGKGNFGSVEMCRYDPLQDNTGEVVAVKKLQHSTEEHLRDFEREIEILKSLQHDNIVKYKGVCYSAGRRNLRLIMEYLPYGSLRDYLQKHKERIDHKKLLQYTSQICKGMEYLGTKRYIHRDLATRNILVENENRVKIGDFGLTKVLPQDKEYYKVKEPGESPIFWYAPESLTESKFSVASDVWSFGVVLYELFTYIEKSKSPPVEFMRMIGNDKQGQMIVFHLIELLKSNGRLPRPEGCPDEIYVIMTECWNNNVSQRPSFRDLSLRVDQIRDSIAA
partner: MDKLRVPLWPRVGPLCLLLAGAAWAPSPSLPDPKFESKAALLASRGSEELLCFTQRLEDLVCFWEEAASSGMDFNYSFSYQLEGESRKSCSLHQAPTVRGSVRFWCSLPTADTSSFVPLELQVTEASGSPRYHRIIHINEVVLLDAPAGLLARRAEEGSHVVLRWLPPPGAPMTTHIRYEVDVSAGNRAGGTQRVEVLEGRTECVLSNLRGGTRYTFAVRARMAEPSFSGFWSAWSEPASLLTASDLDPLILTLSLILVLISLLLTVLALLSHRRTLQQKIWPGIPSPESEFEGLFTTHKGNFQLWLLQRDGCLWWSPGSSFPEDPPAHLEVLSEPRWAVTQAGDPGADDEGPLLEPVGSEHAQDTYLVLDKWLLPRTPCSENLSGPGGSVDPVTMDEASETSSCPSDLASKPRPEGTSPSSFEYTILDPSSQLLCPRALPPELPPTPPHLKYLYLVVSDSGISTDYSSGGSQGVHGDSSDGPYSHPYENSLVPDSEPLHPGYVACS

In one assay the parent is B1. Conditions: with epor_mouse Epor.
For V617F, the “effect of a mutation on the interaction” value is listed as “increasing interaction”.

In another assay the parent is B1. The settings on record: with epor_mouse Epor. The source holds these as a separate data set.
In the case of T875N, the “effect of a mutation on the interaction” value is on record as “increasing interaction”.

In a further assay the parent is B1. The settings on record: with epor_mouse Epor. The source holds these as a separate data set.
In the case of K539L, the “effect of a mutation on the interaction” value was “increasing interaction”.
